According to patent US20160376333A1 (University of Washington, published 2016):

T1: Epstein-Barr virus BHRF1 a.a. 1-161 with C-terminal avi-6his tag (Epstein-Barr virus)
T1 construct: also called EBV BHRF1; BHRF1-biotin
T1 chain: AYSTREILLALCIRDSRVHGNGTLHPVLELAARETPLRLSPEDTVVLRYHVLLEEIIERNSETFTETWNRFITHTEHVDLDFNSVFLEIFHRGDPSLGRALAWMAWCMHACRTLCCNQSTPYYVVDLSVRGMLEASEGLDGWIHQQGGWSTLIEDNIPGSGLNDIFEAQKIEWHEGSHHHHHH

B1: Index 25 (designed binder)
chain: GANHEDAIWEALYKAEDAFKDHLKEIEIYREFSEKFWPLDDYKDNLRAHWIAAALAAIGDWFNVFFEAELKFREAKRKNLRSEDDIKKYRWRLFKALDIAIDLADRVGDEAEKAERLG
B2: Index 73 (designed binder)
chain: GKDLDEIIDEARKEMDDDADDGKKKAEKLLKLHAGTNHSQDDFNEAHRRWIAVALEEIGDLFNAALRAWRKIEEEIRKNQRRKEEAEKAKEKVSKEYERASRKAAELGKEFEERVEQG
B3: Index 12 (designed binder)
chain: GEDDDKVLKWALEALRKVLDEAKEKLEKLKKYTDGDGFGEDYRREFFRKWIAIALEAIGDIFNIMMEALQKADKHKKLNTHDSQKADEAKEKIKKFADEAEERAKELAKKGEAWLLKG
B4: Index 08 (designed binder)
chain: GWDARRALKYVYERMREDLEYARNQIDNMEDRADQYDARTEERKEFTKRWIALALMLIGDGFNAFERAKEWIDDGKNNNQRSSDEADYAKDEALKFIFYAAFEARRKGDELDKKAEGG
B5: Index 07 (designed binder)
chain: GEEFKKKLKKWEEWLLKATNEAENQARNMWQKAEQTDLEDQQRIRAVDFWIAIALMAIGDKFNADQEGDEEFEKYKKKGRASEDKIKEAKDERDRAKKRWEQFVKEAGERAFRGEQLG
B6: Index 70 (designed binder)
chain: GLLWLAIILKAEELARKKDDEAEERIRRLEDEKRKGDPGTLGEAERTDRWIAIMLMAIGDAFNVMLEAKEEAEKLEKLGLVHKELLEKVKEEAERLFERSSDNFEEAAKRADDMEKEG
B7: Index 11 (designed binder)
chain: GNILDEAKDEMREEMEKLWKKFKDEVEEERKEAEREEKHFQERAELTKRWIARALMAIGDMFNRFREAKEKLEKRRELGLISEEDARKALLLLEEFMRRMAEFAKKLGDDLMRDAEKG
B8: Index 69 (designed binder)
chain: GEQAEKALRRAKRRAKWGLDDAKDILDDIEAEIRWYYPRDEERFKFVDRWIAAMLMVIGDLFNAKREALERALRLMRKGLISQDQFKKFMEKLEKIILWGKFQARKLGREKESEITQG
B9: Index 72 (designed binder)
chain: GGSYDDIADLAKKLHKKIAEEAKKKIDELLKEAFEDKPYEEEFAKKMFKWIAIALMAIGDLFNAAELAKRLAEDLKKDNNRDENKAEEAKQRAEQFEKEGAEELAKKGEEAAKKLAGG
B10: Index 19 (designed binder)
chain: GERVEEILRKMLDDALLHFLEHRDDARERKERGERHQPRDEEREELSHDWIAAALMAIGDIFNAKLRAEERAEEFLKWGLRSQDDKKELEERAKEAAKIALKWAEEAGKEADEAEKAG
B11: Index 06 (designed binder)
chain: GRSANDILKQFLEMLQEALRKFDEKKNKIEDEWKQFDLSTQRREEATHKWIAAALMAIGDMFNALRWALEEALKAKLKNLQSSDDLKEAIERMMKLMLEKAQEIQEKGRELADKIEQG
B12: Index 09 (designed binder)
chain: GKEAKKRIQEALEEAKRKAEKLLREHEKKKKEHLLGDKRDREKTEETDKWIAEALMLIGDIFNLYMKFEWEKEREKKLGLLREEEEKEVEDEAKDAYLKALKLAYLVSKKGHEVAELG
B13: Index 00 (Design BbpD04) (designed binder)
chain: GADWKKVLDKAKDIAENRVREIKQKLEEFYKKAMKLDLTQEMRRKLMLEWIAAMLMAIGDIFNAIEQAKQEADKLKKAGQVNSQLLDELKRRLEELKEEASRKCHDYGREFQLKLEYG
B14: Index 17 (designed binder)
chain: GRSAEIMREILEKQAEDDAKKIRDIAQKWKERRKRYDPRDEEREEEVEKWIAFALMAIGDIFNLARWALLQARWERRWNLSHEDEGKNHEENVKDAEDRAHWKAREAAREGAKMSWEG
B15: Index 74 (designed binder)
chain: GTDHQAFDEWARRELERIVEEARERAERLREWIEQKDASREELTKFFAIWIAISLMAIGDLFNVKEQAKRLAELLEFLGLQRKEEIEKSKKNAEKLADEAMKKASKLDAKVEKELMQG
B16: Index 27 (designed binder)
chain: GLDGDYLMDEAFKFIERERERAEEEAKKMYELAEKGKYYEERKTKATKFWIALALEMIGDFFNFEMWFRKYAEKNRENNQRREDLLRRWELLLRFQAWDAAERARELGKRLELWFKKG
B17: Index 18 (designed binder)
chain: GGTEDDIKDLAEKWRDDMKKEFLREFLRIKEWTKYWGWREEGRKLATLRWIALSLMHIGDLFNLKELAKKLVDDIKKKGLEHEERAERAREEAEKIMEKAAKLDSILSKLAAKLIEEG
B18: Index 28 (designed binder)
chain: GKEGSRLREEAERRGLRKLLEVILRWLEDALRMIYGQDKDEDRKEATHRWIADALELIGDIFNALLEAFIKMELARRFGLLEEQRARDEKKKALERAEEFSKRARELGEKLTQILEGG
B19: Index 22 (designed binder)
chain: GSSAEDLRDWARDQHEKDVDKMEKRLRLLYFELARKDFNEEELKKATEKWIAAALDAIGDHFNAALKARLLARDAAKKGLIDRNKLDEVEKMAELFEELGERKAALKGREFLRWVLLG
B20: Index 24 (designed binder)
chain: GELAREAAEEAHRRVEEDARDAKNRLDEFKKRYKITQLSKSDISRATALWIAAALDAIGDIFNAKQKAEKILGLWYKLGLVQLQEFLEKEDKARYHWQAALERAFEAGRDMLEVAAYG
B21: Index 21 (designed binder)
chain: GFDWKKVLDKAKDLAENDVREAKQKLEEFYKKAMKLDLTQEMRRKLMLEWIAAMLMAIGDIFNAIEQGKQEADKLKKLGKVLSQLLDELKRRLEELKEEAALKAHDFGREFELKLLFG
notes: also called computational precursor for BbpD04
B22: Index 71 (designed binder)
chain: GERAERARDWAKDQMDDELEKAREKLWKLAFIAFKFYLKLELLFKLMFRWIAIMLEAIGDFFNVWAIAKRWLERYKLQNNIRKEEIEKAKERAKKLYEEAADKAAKLGRFYMKLLTSG
B23: Index 13 (designed binder)
chain: GSKWEEDREKAKREAEKKLDEAKDKLDLYKDFALRFDASDELKTKWTLEWIALALEMIGDVFNYALEAKEFAEKKARNNLLLDDLKDLYKLYLALLAKEESKKAIEEGDKLREAIEKG
B24: Index 10 (designed binder)
chain: GDSDDDDLKDALLRMLWAAAQAIYHSLENMERKEKFDMHFEEERRDTLQWIADALRAIGDAFNEMMRRRRELEKKRENNIISEQRARLYEEFLKRFAEWASRELAKAGKKEANKLNEG
B25: Index 26 (designed binder)
chain: GRFAERLFKKMLIKQLLNTQYFRDQLKQLKDRSKKYDASDDDKDEATHRWIAFALMAIGDVFNDKLEIELLIELFAKYGLVHEEERKEFRKRLDEFEKIFRKWLDELKKLALEALNQG
B26: Index 14 (designed binder)
chain: GLSADDLFDYAEDRMREGWKDFEELAGEAEKKAKEHTLSDQERREATEKWIAAALELIGDAFNAIRWAEELGKLYVKLNLDDKQKVEELKKKLEERAKEEAQKARKRGDKLEDLADSG
B27: Index 05 (designed binder)
chain: GKDADKKKDEAKKKAEWKEREVFERLEKMEWKKRKDSVSKDDARKFTLKWIADDLELIGDLFNLKEEAREVAEDAARNNQITEEQREEDEKDLEKLAKEHSWRAAYRGKLKAKEFWEG
B28: Index 20 (designed binder)
chain: GLRFEEIERYAREEADKIADEAKERFEKLKKLFLWLTDKDEERLKMTHLWIAGALEAIGDLFNAAELAKELAEKAARLTSQDANRRDEARKKIDEAEKEAADKVSKAAKEAAKFFEQG
B29: Index 23 (designed binder)
chain: GEDEEKDHKDTEEKARRLHERARDMLDKVKDLEEKTDAQDNERRRATHDWIAAALMMIGDAFNSFEDTKRRAEKKRELNLISEDEAKEKIKRAEELRKRIYELLKKAAEFAREAEKGG

Target: T1, Epstein-Barr virus BHRF1 a.a. 1-161 …
Assay: yeast display library, FACS sort at 400 nM BHRF1, deep sequencing

Binder | Log2 enrichment ratio
B1 | -1.53 log2
B2 | -2.27 log2
B3 | -1.37 log2
B4 | -0.8 log2
B5 | -1.16 log2
B6 | -3.13 log2
B7 | -1.55 log2
B8 | -3.99 log2
B9 | -3.47 log2
B10 | -1.98 log2
B11 | -1.45 log2
B12 | -2.05 log2
B13 | 3.19 log2
B14 | -2.54 log2
B15 | -2.62 log2
B16 | 0.86 log2
B17 | 0.98 log2
B18 | -2.85 log2
B19 | -2.4 log2
B20 | -2.95 log2
B21 | -2.81 log2
B22 | -3.07 log2
B23 | -1.6 log2
B24 | 0.62 log2
B25 | -2 log2
B26 | -0.65 log2
B27 | -0.83 log2
B28 | -3.65 log2
B29 | -0.17 log2

Target: T1, Epstein-Barr virus BHRF1 a.a. 1-161 …
Assay: yeast display library, FACS sort at 100 nM BHRF1, deep sequencing

Binder | Log2 enrichment ratio
B1 | -2.9 log2
B2 | -3.14 log2
B3 | -2.56 log2
B4 | -3.06 log2
B5 | -2.79 log2
B6 | -3.02 log2
B7 | -2.62 log2
B8 | -3.25 log2
B9 | -3.34 log2
B10 | -2.97 log2
B11 | -2.35 log2
B12 | -2.55 log2
B13 | 3.92 log2
B14 | -3.41 log2
B15 | -3.38 log2
B16 | -0.72 log2
B17 | -1.36 log2
B18 | -4.52 log2
B19 | -3.03 log2
B20 | -3.02 log2
B21 | -3.38 log2
B22 | -2.58 log2
B23 | -3.07 log2
B24 | -0.72 log2
B25 | -2.74 log2
B26 | -2.91 log2
B27 | -2.5 log2
B28 | -3.87 log2
B29 | -1.72 log2
